The nature of the series: label from the status in PepcDB records.
For the sequence “MAQTDKHYFGTLLAQTSRAWRAELDRRLSHLGLSQARWLVLLHLARHRDSPTQRELAQSVGVEGPTLARLLDGLESQGLVRRLAVAEDRRAKHIVLTPKADVLIADIEAIAASVRNDVLTGIDESEQALCQQVLLRILANLENR”, the protein production entry is reported as “not failed”.
For “MLFDEKEILAITRWAKLYANQSPDRILLGSNDIPPEYRAAVATQIELWPRLRNKLPQWAGISSLYIPSRLSLEQSSGAVTSSYKSRFIREGTKVVDLTGGLGIDFIALMSKASQGIYIERNDETAVAARHNIPLLLNEGKDVNILTGDFKEYLPLIKTFHPDYIYVDPARRSGADKRVYAIADCEPDLIPLATELLPFCSSILAKLSPMIDLWDTLQSLLHVQELHVVAAHGEVKELLVRMSLNEATIPPEKVPIHAINLLLEDTVIPFIFTMEEERSISIPYTDSIDKYVYEPHTALLKAGAFKTVAYRLGLRKLHPNSHLYTSEAYESAFPGRTFVLEEIIPFSTSVLKQLRKVVPQASISCRNFPLSPIELRQRSKMADGGEKTLMGTTMADGKKVLLLLRKAE” the value was “not failed”; for “MEKNLLRSALKIFEKKDLSLLAYSGRSIFESKDSGLKPVVELFKRFDNLEGSLVIDKMVGKAAASFLLKMKPDHIHAKVISKPALKLMNEYGQSFSYDEKIPFVLGKDGKSMCPFEKLVLEMDDPEEIIRIVLSKFTSL”, “not failed”; for “MENSGAYTFETIAREWHESNKRWSEDHRSRVLRYLELYIFPHIGSSDIRQLKTSHLLAPIKEVDTSGKHDVAQRLQQRVTAIMRYAVQNDYIDSNPASDMAGALSTTKARHYPLEHHHHHH”, “not failed”.
For “MQAFFANPAVSWTLLTTGGILLVVIWVLLSLAFLLLADRKIWAGVQMRKGPNVVGPFGLLQSFADFFKFVLKEIVIPAGADKVVFILAPLISLILAFVGWAVVPFAPGWVVSNLNVGILYLLAMSSLGVYGIIMGGWASNSKYPFLGALRSAAQMVSYEVSIGLIIITVILLAGSMNLSTIVEKQSGWIWNWNVFGGGLNNLVLLPVMVVAMGMFYISALAETNRPPFDLPEAESELVAGYQVEYSSTPYLLFMVAEYSNIVLMCAMISVLFFGGWNPGFPTDFLSSWHPFAANLFLALVFYAKICFWFFMFAMAKAIVPRYRYDQLMRLGWKVFLPTSLVLVAAVAAWRVFGPAA” the value was “failed”.
With “MQFEVLKRFFPKESLKNCKGALWVHTASIGEFNTFLPILKELKREHRILLTYFSPRAREYLKTKSDFYDCLHPLPLDNPFSVKRFEELSKPKALIVVEREFWPSLIIFTKVPKILVNAYAKGSLIEKILSKKFDLIIMRTQEDVEKFKTFGAKRVFSCGNLKFICQKGKGIKLKGEFIVAGSIHTGEVEIILKAFKEIKKTYSSLKLILVPRHIENAKIFEKKARDFGFKTSFFENLEGDVILVDRFGILKELYPVGKIAIVGGTFVNIGGHNLLEPTCWGIPVIYGPYTHKVNDLKEFLEKEGAGFEVKNETELVTKLTELLSVKKEIKVEEKSREIKGCYLEKLREFLRGL”, the protein production result is “failed”.
With “MTSVRGIAPLPSKKSSDRQKRLAMSTFERYLTLWVALCIVVGIGLGHLMPGAFQVIGAAEIAKVNLPVAALIWLMIIPMLVRIDFAALGRVREHWRGIGVTLFINWAVKPFSMAALAWLFVGYLFRPYLPADQINSYIAGLIILAAAPCTAMVFVWSNLTKGEPHFTLSQVALNDTIMVFAFAPIVGLLLGLSAITVPWDTLVLSVVLYIVVPVIIAQGLRRWALASGGEAQLQRLLGIFQPLSLVALLATLVLLFGFQGEQIIRQPLVIALLAVPILIQVYFNAGLAYLLNRLSGEQHCVAGPSALIGASNFFELAVAAAISLFGFESGAALATVVGVLIEVPVMLTVVAIVNRSKRWYEADQRAPVARTPG” the entry was “failed”; with “MGSVPMGHKRISFHIVQTTRSGDRSASRTSVEEASDQGPSPWTTADSAIFQLRWSCVWRRAVSTSANIEDGADAAFVASPPPFGAGVADLYQALLVPILFEPYALEMAIVAERSKPVSVLEVAAGTGALTRALRAKLDPAAEIVATDLSQAMIDVGAPSVTMSRTHWMHADAQDLPFAPLMFDLVVCQFGVMFFPDKPKAYHEAKRVLRSGGRLLFSTWDSLAANDFARCVDECLTGLFPSDPPDFLGRLPYSYFDPSLIKAEVSSAGFKAVSCERLELASIAATSQDVATAFCRGTPLSGEIEWRAPERMSEIVDEVAERVASRYGARPCGSMSALVVSGRAP”, “failed”.
With “MTENTFTDPSWLRLSCFIGVLLLCNLWENKLPRKTLTVKRSFRWLNNLSLVALNSAIIALVMPIAAFQAAAIAHDQQWGLFNLLSLPGWLNVLLAVIVLDLIIYVQHLVFHRVKPLWKIHRMHHADLDIDVTTGARFHPIEIIISMVVKITSVFILGVSPLAIVVFEIILNASAMFNHSNAKLALSIDKKLRKVIVTPDMHRVHHSVMVKETHSNFGFFLSVWDRWFGTYRAQPALGHNDVVIGVPEIREASEQRLDKLLTQPFRYREGKGKNVD”, the protein production entry is on record as “not failed”.
For “MVVTCPKCGAKNRLGTPPPGQVPVCGACKTPLPWVVEADEKGFAQEVAGAPLTLVDFFAPWCGPCRLVSPILEELARDHAGRLKVVKVNVDEHPGLAARYGVRSVPTLVLFRRGAPVATWVGASPRRVLEERLRPYLEGR” the value was “not failed”; for “MSKKKILIFISVILIIFGGVYLKMKYDEKAKQKEIYYKEQQERITLYLKYNTKKPNTIKSVHFTSLEQGPMGDAIIEGYINNNKEDEFVAFASPENNYQFGGGLTADVKIFKLLKPANESRSPNEIKKDLDKKKERLEHHHHHH”, “not failed”; for “MQISIKTVKGKSINLEVADSSDTIDLKINGEPTRQLVLRLGPAVLMRIFVSTIKEKTFILEVKGSDTIKKLKSMIHDQGGPPVDQQDLNHLGTKLKNNATISDYNIKPDANLVIMQNGCIC”, “failed”.
As to “MANHKPEIVITYCTQCQWLLRAAWLAQELLSTFADDLGRVALEPGTGGIFRITCNGVQIWERKADGGFPEAKVLKQRVRDQVDPQRDLGHNDR”, the protein production entry was “not failed”.
With “MTKHIPLQATSACAAVPPSAVLDSAHLGEIRGALGTIAADDRAPRRTLKARLQTLLAIAGPGLIVMVGDNDAGAFGTYTQAGQNYGTTLLWTLLLLIPVLYVNQEMVVRLGAVTGVGHARLIFARFGKFWGAFSVADLFLLNALTLVTEFIGISLALQYLGLSQFWGVIAAAVIITFAVSTGDFRRFERFALLLVAGSLLLIPVAVMVHPPLPQLAHDFFVPKMPAGAPLGEVMLLIIAIVGTTIAPWQLFFQQSYLIDKRITPRFIRYERWDLCVGIALVIIGAVAMIGFSAAAFAGRPEFGAYTDALGTAHGLEQAAGRLPAILFALALLDASIIGAAAVSLATAYAIGDVFAVAHSLHRKPSEAKGFYAVYAGLIAFAAALVVTPGMPLGLLTNAVQTLAGVLLPSATVFLLLLCNDKAVLGPWVNRRAGNLFTGAIVAVLVLLSVILTVSVLFPGVGETTILGILGGGVVGALLLSGAVALIARRGQGVRAEPPARSVVAPEEWRMPLLATLPPARLSAVSRTWLLVLRGYLVLAAGLVLYRIVELIAR” the entry was “failed”; with “MKWRYSPKTSNYCFIVGGFFLFLPILMYGWGHFRRPPRSENQQELFRGIVYQRLIESKPRPLIIHIVTIDLNTPGIKPFITPDIENLSKNVGVGKQAIIDNETKARTTSEFVAEFQVKLAINGSYFYPFKEVTPWHYYPHSGDTTKVLGQTISNGKIYANKKSSWYVLCFDNNNQAQIPGGEECPKNTIQGLAGDDVLVFQGKPKINIYANSSADKPYSRVVAAIDKTGKKLWLVLVDGKQPLYSEGFTKRELTQFIAKLGVYNAINLDGGGSTTLVVANPDKEGKPKILNAPTHTKILMRDRPVANHLGFYAD”, “failed”.
For “MRLITNLLIIAILFSVPHVSIARIPEVVLSKKSAVVSIYVEDKQKIVAGGSGFIIDQNGIIVTNAHVIEPWNKSTTGILYVKKSDGTFLEPTEVIAADAVKDVALVRVKEQNLPFIKLTSNITPTQGDDVVVIGNPLGLETTVTDGIISAIRGEDGFLQISAPISQGSSGSPVLNSKGEAIGVATSIMAGGQNLNFAIPASYVTNLPTQEKAPPVKGLKKRAESPSGFETVTPEDIERDVVQIPEGAVHKGKVLFATDSGGYTYIRIEENGAPLWVAVTQTTISIGDIIEFPDSPPMTGFNSKSMNMTFDKITFAAGIRIVQRGNVEFKSPEEKHLYYAEQYSSMNNTPAAIEEISKAIELNPKKAEYYGKRANYYLQRRMYADSKSDEYQQIVASNRESCRNAVDDLNKAIAINPGNDVFYATQARIFTDSLFCDYANADKAIKLYETAIQLNPKKADYYVEKGWQHKIKNDFSKVLDCAKKALSISPNNEDAHYLYGSYYEENNKYDKALEYYTKGLSVSDNVTFGYFYIDGVMEKTKKYDDAVRIYTDLIKQHPKRLIFYNGRAEYYAKLKNYKKAIADYTTCIKLNPNSEYNYNLRANCYYEDGKKSEALTDYRTACDMKHAESCEMIPIVFADIKRGANWVPVAASSDVNYYYDKKGYTKNKNGVAVAWIRGEITDKEEYIKDIDISEYEKEKYKNVSHVMSRFEVDCPNQKLRVPISLIYAENGNVIRSYEDEKTKYSNIIPNSIGASIHENLCKGAPAKKIGKKK” the value was “failed”; for “MPEDLNWAIGGEAGDGIDSTGKIFAQALSRAGRHVFTSKDFASRIRGGYTAYKVRTSVDRVESVVDRLDILIALTERTIHENEDELHEDSVIIYDGERSTMQDVEVPGDATALEVPLKRLAEDAGGAIMLNVVALGAACEVTGFPIENLDESLEKRFGDKGEAIVENNKEAARKGQHYVQEEYGEFDYDMETTDEDYVLLNGDEAIGMGAIAAGCRFYSGYPITPATDVMEYMTGRVDQFGGKVVQAEDELSAINMALGAARAGARAMTATSGPGIDLMTETFGLVATSETPLVICDVMRSGPSTGMPTKQEQGDLNMTLYGGHGEIPRFVVAPTTVSECFWKTVEAFNLAEKYQTPVFLVSDLAMAVTEQTFSPETFDMDEVEIDRGKVVDENEIDAWLDEKGRFQAHFAAADGVSPRAFPGTTDGAHMTTGLEHDELGRRTEDTDVRIEQVDKRQRKVETAREQEDFDYREFGDSDADTLVISWGSNEGALREGLTLLEEDGYDVRFLSVPYIFPRPDLSEEIEAAEDVIVVECNATGQFADVIEHDVLERVQRINKYNGVRFKADELATEIKQTLDTPPEATQ”, “failed”.
With “MIKDRFLQLIQLLISLFLIMGALGIGITIQKFTGVSVPGSVIGMLVLFFSMTLGLVKVDWVKPGATLFIRYMILLFVPISVGLMQHFDMLLANALPIIASAVGGSLIVLVSLAWLLDYLLKEKH” the entry was “failed”.
Take “MVSLLLISLLYLGIMLIAAKISEEIFRRIGLVTFVGPILMGILLGNGVFGVIQINEIISFITSLGIVFLLFLAGAEEFNVENRPNANVFLAVILESIIPFSVILVAIYIIGFKNYLILIVPLAMSSAGPLSRMLMDVKISDNRISNLIFQQVILIEIIFVILFAILLKTSEILITIIEIFLVFAFTIMFGRTLAKILEKIEYYFKAREIEFASLIAIILIIGYLAELYKFNSAISAFFLGILLKDYLKDRPELLERLHAFTYGFFEPLFFLGIGLYVTKINASIILFSLLFFSLIIASKFLAGFISSKILNIKGKINGFATSVKGGVDSSLLLTGLTLGYINEFMYSFSILAISLSALIVPLLFQINFKISNKISESKKVKLSQEVIKLQIKPLYASCEENLRSVISKISERGVRGIVVVNYENKPLGYVSIQTLLEIDPELYESTKACEVPLDEVPIEYDNVKVIDLLRKFRETEKPVIAIINKEGVLVTTVYERELARFLISF”: the protein production entry is “failed”.

Values taken from a protein production outcome set (Wang et al. 2014).
